Consider one molecule from patent US20040219159, “Methods and compositions for therapeutic intervention in infectious disease” (published 2004).

The series deals with T1, HspR (Rv0353) (Mycobacterium tuberculosis, UniProt O06302 O06302:1-126).
T1 sequence: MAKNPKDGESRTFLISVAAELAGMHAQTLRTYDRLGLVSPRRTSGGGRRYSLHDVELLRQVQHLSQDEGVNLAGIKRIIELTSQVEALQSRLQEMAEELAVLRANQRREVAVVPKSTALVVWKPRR
Kind of series: EMSA. Particulars: tags: His-tag (pQE30, expressed in E. coli SG13009, renatured from urea); label: 32P; annealed 40-mers with short 5' overhangs. (In general: A gel shift assay detects complexes by their altered migration in electrophoresis.)

B1: HAIR2 oligonucleotide DNAKIR-F/DNAKIR-R (dsDNA)
DNA 1: GCTCAGTAAGTTGAGTGCATCAGGCTCAGCTCTGAATTGA
DNA 2: GTCAATTCAGAGCTGAGCCTGATGCACTCAACTTACTGAG
With B1, the binding result was “binds”.
